Test results reported in IntAct's records for PubMed 23622247.

B1: Rho-related GTP-binding protein RhoE (Mus musculus), P61588 (parent)
chain: MKERRASQKLSSKSIMDPNQNVKCKIVVVGDSQCGKTALLHVFAKDCFPENYVPTVFENYTASFEIDTQRIELSLWDTSGSPYYDNVRPLSYPDSDAVLICFDISRPETLDSVLKKWKGEIQEFCPNTKMLLVGCKSDLRTDVSTLVELSNHRQTPVSYDQGANMAKQIGAATYIECSALQSENSVRDIFHVATLACVNKTNKNVKRNKSQRATKRISHMPSRPELSAVATDLRKDKAKSCTVM

Variants of: B1
Conditions: with rhg05_human ARHGAP5, Q13017
Chain of rhg05_human ARHGAP5, Q13017 (Q13017 whole entry): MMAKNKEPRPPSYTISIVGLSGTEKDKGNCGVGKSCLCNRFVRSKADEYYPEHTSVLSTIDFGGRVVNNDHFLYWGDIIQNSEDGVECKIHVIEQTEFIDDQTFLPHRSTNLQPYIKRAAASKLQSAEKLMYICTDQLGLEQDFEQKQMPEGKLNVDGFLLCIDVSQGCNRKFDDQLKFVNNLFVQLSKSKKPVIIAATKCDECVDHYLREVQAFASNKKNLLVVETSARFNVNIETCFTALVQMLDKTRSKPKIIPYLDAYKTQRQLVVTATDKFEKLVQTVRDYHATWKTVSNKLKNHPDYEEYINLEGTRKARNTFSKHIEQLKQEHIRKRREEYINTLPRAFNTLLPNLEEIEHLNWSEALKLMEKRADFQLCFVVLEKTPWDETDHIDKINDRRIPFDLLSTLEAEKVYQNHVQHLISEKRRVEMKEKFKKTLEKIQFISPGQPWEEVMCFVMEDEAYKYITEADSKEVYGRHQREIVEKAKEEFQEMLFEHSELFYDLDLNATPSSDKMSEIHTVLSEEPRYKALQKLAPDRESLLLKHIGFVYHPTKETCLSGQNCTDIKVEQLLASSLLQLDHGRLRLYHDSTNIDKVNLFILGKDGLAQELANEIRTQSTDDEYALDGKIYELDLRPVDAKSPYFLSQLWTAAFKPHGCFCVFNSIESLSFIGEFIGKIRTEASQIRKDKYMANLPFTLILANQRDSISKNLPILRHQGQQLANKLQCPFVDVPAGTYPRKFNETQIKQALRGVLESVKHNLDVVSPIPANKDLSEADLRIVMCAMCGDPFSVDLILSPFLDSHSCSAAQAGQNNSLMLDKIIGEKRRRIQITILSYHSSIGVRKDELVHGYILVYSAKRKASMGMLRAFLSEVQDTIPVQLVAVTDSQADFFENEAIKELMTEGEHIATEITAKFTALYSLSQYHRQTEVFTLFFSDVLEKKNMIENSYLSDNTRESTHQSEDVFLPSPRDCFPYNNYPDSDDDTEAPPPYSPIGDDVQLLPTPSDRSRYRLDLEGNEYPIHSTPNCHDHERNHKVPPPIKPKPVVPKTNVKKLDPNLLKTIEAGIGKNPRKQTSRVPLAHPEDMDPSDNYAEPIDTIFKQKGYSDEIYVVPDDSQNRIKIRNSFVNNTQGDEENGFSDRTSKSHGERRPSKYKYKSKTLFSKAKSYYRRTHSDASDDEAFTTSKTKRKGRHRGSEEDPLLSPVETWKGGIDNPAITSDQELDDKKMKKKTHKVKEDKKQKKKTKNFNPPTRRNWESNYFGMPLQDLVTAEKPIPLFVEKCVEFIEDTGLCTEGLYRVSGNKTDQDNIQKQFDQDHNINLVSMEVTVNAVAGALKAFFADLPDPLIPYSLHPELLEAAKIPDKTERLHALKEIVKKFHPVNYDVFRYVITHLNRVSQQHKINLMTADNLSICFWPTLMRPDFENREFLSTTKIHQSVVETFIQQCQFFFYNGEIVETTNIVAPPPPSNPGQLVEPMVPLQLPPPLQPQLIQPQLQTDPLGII

Variant	effect of a mutation on the interaction
MKERRASQKLSSKSIMDPNQNVKCKIVVVGDSQCGKTALLHVFAKDCFPENYVPVVFENYTASFEIDTQRIELSLWDTSGSPYYDNVRPLSYPDSDAVLICFDISRPETLDSVLKKWKGEIQEFCPNTKMLLVGCKSDLRTDVSTLVELSNHRQTPVSYDQGANMAKQIGAATYIECSALQSENSVRDIFHVATLACVNKTNKNVKRNKSQRATKRISHMPSRPELSAVATDLRKDKAKSCTVM [T55V]	disrupting interaction strength

Variants of: B1
Conditions: with 1433b_human YWHAB

Variant	effect of a mutation on the interaction
MKERRASQKLSSKSIMDPNQNVKCKIVVVGDSQCGKTALLHVFAKDCFPENYVPTVFENYTASFEIDTQRIELSLWDTSGSPYYDNVRPLSYPDSDAVLICFDISRPETLDSVLKKWKGEIQEFCPNTKMLLVGCKSDLRTDVSTLVELSNHRQTPVSYDQGANMAKQIGAATYIECSALQSENSVRDIFHVATLACVNKTNKNVKRNKAQRAAKRIAHMPSRPELSAVATDLRKDKAKSCTVM [S210A;T214A;S218A]	disrupting interaction strength

Variants of: B1
Conditions: with 1433b_human YWHAB
Remark: another data set of the same source

Variant	effect of a mutation on the interaction
MKERRAAQKLASKSIMDPNQNVKCKIVVVGDSQCGKTALLHVFAKDCFPENYVPTVFENYTASFEIDTQRIELSLWDTSGSPYYDNVRPLSYPDSDAVLICFDISRPETLDSVLKKWKGEIQEFCPNTKMLLVGCKSDLRTDVSTLVELSNHRQTPVSYDQGANMAKQIGAATYIECSALQSENSVRDIFHVATLACVNKTNKNVKRNKAQRAAKRIAHMPARPELSAVATDLRKDKAKACTVM [S7A;S11A;S210A;T214A;S218A;S222A;S240A]	disrupting interaction strength
